Results: patent US20170182124A1, “FGF21 Derivatives and Uses Thereof” (Novo Nordisk A/S, priority 2014, published 2017)
Where two headings read alike, the source gives them in different places.

Molecular target: FGF receptor/BKL complex
Test: FGF receptor potency in an Erk phosphorylation assay in HEK293 overexpressing human BKL
Format: cell-based
Details: for EC50: HEK293/BKL cells, pERK after 12 minutes
Procedure: In order to test the binding of the FGF21 derivatives to albumin, the assay was performed in the absence of serum albumin as well as in the presence of human serum albumin (HSA) (0.1% final assay concentration). An increase in EC50 value (decrease in potency) in the presence of serum albumin for FGF21 derivatives would indicate binding to serum albumin and represents a method to predict a protracted pharmacokinetic profile of the test substance in animal models. MetFGF21 (SEQ ID NO:2) is included for reference.
HEK293 cells endogenously express several FGF receptors, including FGFR1c, FGFR3c and FGFR4. These cells are unresponsive to FGF21 until transfected with the co-receptor beta-klotho (BKL). Activation of the FGF receptor/BKL complex leads to activation of the MAPK/ERK signalling pathway and phosphorylation of ERK. The level of phosphorylated ERK (pERK) at a given time point increases with increasing concentrations of FGF21. As described below the level of pERK is measured after 12 minutes of stimulation with a range of FGF21 analogue concentrations.
The HEK293/beta-klotho cells are seeded with 30.000 cells/well in 96 well plates in DMEM (BioWhittaker #BE12-604F/U1), supplemented with 10% FCS (Gibco #16140-071), 1% penicillin/streptomycin (Gibco #15140), 100 µg/ml Hygromycin B, (Calbiochem, # 400052). Two days later and 2 hours before addition of compound the cell medium is exchanged with 100 ∞l basal medium (DMEM (BioWhittaker #BE12-604F/U1)). The FGF21 analogues are diluted in assay medium (DMEM (BioWhittaker #BE12-604F/U1) supplemented with 0.02% Tween20), warmed to 37° C., added to the cells (100 μl) and incubated at 37° C. for 12 minutes. The FGF21 derivatives were also tested in the presence of 0.1% HSA (Sigma—A1887). All medium is quickly removed and 50 μl lysis buffer is added pr. well. The plate is shaken for 5 minutes and the lysate is ready for measurement of pERK. pERK is measured in 384 well plates with the AlphaScreen SureFire kit (PerkinElmer #TGRES10K). This kit is based on ERK and pERK specific antibodies coupled to donor and acceptor beads. The presence of pERK will bring acceptor and donor beads in close proximity and a signal is generated that is read on EnVision. The data are analysed using GraphPad Prism and the potency of the FGF21 proteins is described as absolute EC50 value.

[1] = presence of 0.1% HSA, read-out: EC50 (0.1% HSA)

FGF receptor/BKL complex, sequence (Q86Z14 whole entry, one chain of several): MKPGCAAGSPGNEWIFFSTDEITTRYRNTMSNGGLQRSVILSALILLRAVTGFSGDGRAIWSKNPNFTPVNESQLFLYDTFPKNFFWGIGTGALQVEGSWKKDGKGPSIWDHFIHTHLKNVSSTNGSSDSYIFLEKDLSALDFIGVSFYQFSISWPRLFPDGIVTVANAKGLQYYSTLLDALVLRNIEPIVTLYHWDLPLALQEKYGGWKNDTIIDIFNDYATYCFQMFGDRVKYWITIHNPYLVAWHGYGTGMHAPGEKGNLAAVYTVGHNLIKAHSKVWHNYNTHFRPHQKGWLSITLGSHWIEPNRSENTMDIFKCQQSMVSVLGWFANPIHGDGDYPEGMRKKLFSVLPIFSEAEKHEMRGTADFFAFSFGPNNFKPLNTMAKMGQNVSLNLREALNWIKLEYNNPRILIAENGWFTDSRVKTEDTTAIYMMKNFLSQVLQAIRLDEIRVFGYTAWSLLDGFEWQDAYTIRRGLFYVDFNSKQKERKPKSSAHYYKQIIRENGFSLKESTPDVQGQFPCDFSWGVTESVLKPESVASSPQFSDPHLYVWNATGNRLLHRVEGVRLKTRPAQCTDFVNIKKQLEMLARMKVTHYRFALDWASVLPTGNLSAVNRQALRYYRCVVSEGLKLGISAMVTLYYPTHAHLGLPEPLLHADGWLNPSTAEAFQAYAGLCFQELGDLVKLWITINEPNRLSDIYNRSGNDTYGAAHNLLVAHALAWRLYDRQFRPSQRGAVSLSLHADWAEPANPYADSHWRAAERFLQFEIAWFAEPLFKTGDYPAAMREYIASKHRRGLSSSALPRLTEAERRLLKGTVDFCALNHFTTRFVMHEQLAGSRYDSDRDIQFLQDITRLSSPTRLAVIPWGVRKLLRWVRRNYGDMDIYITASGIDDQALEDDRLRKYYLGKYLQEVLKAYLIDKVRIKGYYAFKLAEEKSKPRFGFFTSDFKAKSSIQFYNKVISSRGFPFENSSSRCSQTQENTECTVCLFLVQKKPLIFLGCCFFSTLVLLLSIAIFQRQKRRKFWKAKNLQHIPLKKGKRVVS

S{Beta-168}-[2-[2-[[2-[2-[2-[[2-[2-[2-[[(4S)-4-carboxy-4-(13-carboxytridecanoyl-amino)butanoyl]amino]ethoxy]ethoxy]acetyl]amino]ethoxy]ethoxy]acetyl]amino]-ethylamino]-2-oxoethyl]-Ala[Gln121,Cys168]FGF21 [Compound 34]
EC50 (absence of HSA, read-out: EC50): 667 nM
EC50 [1]: 4260 nM

B1: Ala[Gln121, Cys168]FGF21 (protein)
chain: AHPIPDSSPLLQFGGQVRQRYLYTDDAQQTEAHLEIREDGTVGGAADQSPESLLQLKALKPGVIQILGVKTSRFLCQRPDGALYGSLHFDPEACSFRELLLEDGYNVYQSEAHGLPLHLPGQKSPHRDPAPRGPARFLPLPGLPPALPEPPGILAPQPPDVGSSDPLSCVGPSQGRSPSYAS
modifications: N-terminal Ala
EC50 (absence of HSA, read-out: EC50): 492 nM
potency in HEK293/BKL cells compared with MetFGF21 or corresponding analogue (in words) (absence of HSA): decreased potency

B2: Ala[Gln121, Leu168, Cys177]FGF21 (protein)
chain: AHPIPDSSPLLQFGGQVRQRYLYTDDAQQTEAHLEIREDGTVGGAADQSPESLLQLKALKPGVIQILGVKTSRFLCQRPDGALYGSLHFDPEACSFRELLLEDGYNVYQSEAHGLPLHLPGQKSPHRDPAPRGPARFLPLPGLPPALPEPPGILAPQPPDVGSSDPLSLVGPSQGRSCSYAS
modifications: N-terminal Ala
EC50 (absence of HSA, read-out: EC50): 416 nM

B3: Ala[Gln121, Leu168, Cys171]FGF21 (protein)
chain: AHPIPDSSPLLQFGGQVRQRYLYTDDAQQTEAHLEIREDGTVGGAADQSPESLLQLKALKPGVIQILGVKTSRFLCQRPDGALYGSLHFDPEACSFRELLLEDGYNVYQSEAHGLPLHLPGQKSPHRDPAPRGPARFLPLPGLPPALPEPPGILAPQPPDVGSSDPLSLVGPCQGRSPSYAS
modifications: N-terminal Ala
notes: FGF21 analogue
EC50 (absence of HSA, read-out: EC50): 8 nM

B4: Ala[Gln121, Leu168, Cys172]FGF21 (protein)
chain: AHPIPDSSPLLQFGGQVRQRYLYTDDAQQTEAHLEIREDGTVGGAADQSPESLLQLKALKPGVIQILGVKTSRFLCQRPDGALYGSLHFDPEACSFRELLLEDGYNVYQSEAHGLPLHLPGQKSPHRDPAPRGPARFLPLPGLPPALPEPPGILAPQPPDVGSSDPLSLVGPSCGRSPSYAS
modifications: N-terminal Ala
notes: FGF21 analogue
EC50 (absence of HSA, read-out: EC50): 5 nM

B5: Ala[Gln121, Leu168, Cys173]FGF21 (protein)
chain: AHPIPDSSPLLQFGGQVRQRYLYTDDAQQTEAHLEIREDGTVGGAADQSPESLLQLKALKPGVIQILGVKTSRFLCQRPDGALYGSLHFDPEACSFRELLLEDGYNVYQSEAHGLPLHLPGQKSPHRDPAPRGPARFLPLPGLPPALPEPPGILAPQPPDVGSSDPLSLVGPSQCRSPSYAS
modifications: N-terminal Ala
notes: FGF21 analogue
EC50 (absence of HSA, read-out: EC50): 4 nM

B6: Ala[Gln121, Leu168, Cys174]FGF21 (protein)
chain: AHPIPDSSPLLQFGGQVRQRYLYTDDAQQTEAHLEIREDGTVGGAADQSPESLLQLKALKPGVIQILGVKTSRFLCQRPDGALYGSLHFDPEACSFRELLLEDGYNVYQSEAHGLPLHLPGQKSPHRDPAPRGPARFLPLPGLPPALPEPPGILAPQPPDVGSSDPLSLVGPSQGCSPSYAS
modifications: N-terminal Ala
notes: FGF21 analogue
EC50 (absence of HSA, read-out: EC50): 5 nM

B7: Ala[Gln121, Leu168, Cys175]FGF21 (protein)
chain: HPIPDSSPLLQFGGQVRQRYLYTDDAQQTEAHLEIREDGTVGGAADQSPESLLQLKALKPGVIQILGVKTSRFLCQRPDGALYGSLHFDPEACSFRELLLEDGYNVYQSEAHGLPLHLPGQKSPHRDPAPRGPARFLPLPGLPPALPEPPGILAPQPPDVGSSDPLSLVGPSQGCSPSYAS
notes: FGF21 analogue
EC50 (absence of HSA, read-out: EC50): 11 nM

B8: Ala[Gln121, Cys167, Leu168,]FGF21 (protein)
chain: AHPIPDSSPLLQFGGQVRQRYLYTDDAQQTEAHLEIREDGTVGGAADQSPESLLQLKALKPGVIQILGVKTSRFLCQRPDGALYGSLHFDPEACSFRELLLEDGYNVYQSEAHGLPLHLPGQKSPHRDPAPRGPARFLPLPGLPPALPEPPGILAPQPPDVGSSDPLCLVGPSQGRSPSYAS
modifications: N-terminal Ala
EC50 (absence of HSA, read-out: EC50): 4 nM

B9: Ala[Gln121, Leu168, Cys169]FGF21 (protein)
chain: AHPIPDSSPLLQFGGQVRQRYLYTDDAQQTEAHLEIREDGTVGGAADQSPESLLQLKALKPGVIQILGVKTSRFLCQRPDGALYGSLHFDPEACSFRELLLEDGYNVYQSEAHGLPLHLPGQKSPHRDPAPRGPARFLPLPGLPPALPEPPGILAPQPPDVGSSDPLSLCGPSQGRSPSYAS
modifications: N-terminal Ala
EC50 (absence of HSA, read-out: EC50): 22 nM

B10: Ala[Gln121, Leu168, Cys170]FGF21 (protein)
chain: AHPIPDSSPLLQFGGQVRQRYLYTDDAQQTEAHLEIREDGTVGGAADQSPESLLQLKALKPGVIQILGVKTSRFLCQRPDGALYGSLHFDPEACSFRELLLEDGYNVYQSEAHGLPLHLPGQKSPHRDPAPRGPARFLPLPGLPPALPEPPGILAPQPPDVGSSDPLSLVCPSQGRSPSYAS
modifications: N-terminal Ala
EC50 (absence of HSA, read-out: EC50): 7 nM

B11: 18-[[(1S)-4-[2-[2-[2-[2-[2-[2-(2-acetamidoethylamino)-2-oxo-ethoxy]ethoxy]ethylamino]-2-oxo-ethoxy]ethoxy]ethylamino]-1-carboxy-4-oxo-butyl]amino]-18-oxo-octadecanoic … (protein)
chain: HPIPDSSPLLQFGGQVRQRYLYTDDAQQTEAHLEIREDGTVGGAADQSPESLLQLKALKPGVIQILGVKTSRFLCQRPDGALYGSLHFDPEACSFRELLLEDGYNVYQSEAHGLPLHLPGQKSPHRDPAPRGPARFLPLPGLPPALPEPPGILAPQPPDVGSSDPLSLVCPSQGRSPSYAS
EC50 (absence of HSA, read-out: EC50): 1 nM
EC50 [1]: 20 nM

B12: S{Beta-173}-[2-[2-[[2-[2-[2-[[2-[2-[2-[[(4S)-4-carboxy-4-(15-carboxypentadecanoyl-amino)butanoyl]amino]ethoxy]ethoxy]acetyl]amino]ethoxy]ethoxy]acetyl]amino]-ethylamino]-2-oxoethyl]-Ala[Gln121,Leu168, … (protein)
chain: HPIPDSSPLLQFGGQVRQRYLYTDDAQQTEAHLEIREDGTVGGAADQSPESLLQLKALKPGVIQILGVKTSRFLCQRPDGALYGSLHFDPEACSFRELLLEDGYNVYQSEAHGLPLHLPGQKSPHRDPAPRGPARFLPLPGLPPALPEPPGILAPQPPDVGSSDPLSLVGPSCGRSPSYAS
EC50 (absence of HSA, read-out: EC50): 3 nM
EC50 [1]: 4 nM

B13: S{Beta-174}-[2-[2-[[2-[2-[2-[[2-[2-[2-[[(4S)-4-carboxy-4-(13-carboxytridecanoyl-amino)butanoyl]amino]ethoxy]ethoxy]acetyl]amino]ethoxy]ethoxy]acetyl]amino]-ethylamino]-2-oxoethyl]-Ala[Gln121,Leu168,Cy … (protein)
chain: HPIPDSSPLLQFGGQVRQRYLYTDDAQQTEAHLEIREDGTVGGAADQSPESLLQLKALKPGVIQILGVKTSRFLCQRPDGALYGSLHFDPEACSFRELLLEDGYNVYQSEAHGLPLHLPGQKSPHRDPAPRGPARFLPLPGLPPALPEPPGILAPQPPDVGSSDPLSLVGPSQCRSPSYAS
EC50 (absence of HSA, read-out: EC50): 4 nM
EC50 [1]: 4 nM

B14: 18-[[(1S)-4-[2-[2-[2-[2-[2-[2-(2-acetamidoethylamino)-2-oxo-ethoxy]ethoxy]ethylamino]-2-oxo-ethoxy]ethoxy]ethylamino]-1-carboxy-4-oxo-butyl]amino]-18-oxo-octadecanoic … (protein)
chain: HPIPDSSPLLQFGGQVRQRYLYTDDAQQTEAHLEIREDGTVGGAADQSPESLLQLKALKPGVIQILGVKTSRFLCQRPDGALYGSLHFDPEACSFRELLLEDGYNVYQSEAHGLPLHLPGQKSPHRDPAPRGPARFLPLPGLPPALPEPPGILAPQPPDVGSSDPLSLVGPSQCRSPSYAS
EC50 (absence of HSA, read-out: EC50): 1 nM
EC50 [1]: 1 nM
